The values below are quoted from earlier work in paper PMC4046138.

The target of the data set is mesothelin (Homo sapiens) (UniProt Q13421).

pKd: −log10 of the molar value.

Chain of UniProt Q13421 (Q13421 other isoform, or with tags, fused parts or gaps): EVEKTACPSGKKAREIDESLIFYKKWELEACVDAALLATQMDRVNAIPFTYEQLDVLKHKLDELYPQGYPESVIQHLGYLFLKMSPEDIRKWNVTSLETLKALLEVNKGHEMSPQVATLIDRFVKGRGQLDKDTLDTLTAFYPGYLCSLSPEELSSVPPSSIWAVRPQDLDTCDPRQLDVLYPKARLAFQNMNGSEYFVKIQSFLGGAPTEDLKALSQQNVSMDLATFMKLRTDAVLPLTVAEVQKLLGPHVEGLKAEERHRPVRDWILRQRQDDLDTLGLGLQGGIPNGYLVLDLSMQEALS

Broadly, the pKd is the Kd on a negative log10 scale, so that one unit is a factor of ten. For the substance MUC16 (from UniProt Q8WXI7), the pKd is 8.30.
